Consider one molecule from doi:10.1101/2020.09.30.318972 (bioRxiv, 2020).

The target of this assay is soluble prefusion-stabilized trimeric SARS-CoV-2 spike protein (SARS-CoV-2, Wuhan-Hu-1 (MN908947.3), UniProt P0DTC2, stabilised). Nature of the assay: cryo-EM structure.

B1: LY-CoV555 Fab (Fab, V domains shown)
VH: QVQLVQSGAEVKKPGSSVKVSCKASGGTFSNYAISWVRQAPGQGLEWMGRIIPILGIANYAQKFQGRVTITADKSTSTAYMELSSLRSEDTAVYYCARGYYEARHYYYYYAMDVWGQGTAVTVSS
VL: not shown
With B1, the binding result is “binds”.
